Values belong to the binder of their own block, whether it stands above or below them.
Columns and labels:
[1] = target: T1, human gp130 expressed endogenously on IMR-32/Stat3-luc cells (human, UniProt P40189 23-918); assay: FACS, 10 nM mAb, IMR-32/Stat3-luc cells, no hGP130.mmh
T1 construct: whole, on cells
T1 sequence (looked up): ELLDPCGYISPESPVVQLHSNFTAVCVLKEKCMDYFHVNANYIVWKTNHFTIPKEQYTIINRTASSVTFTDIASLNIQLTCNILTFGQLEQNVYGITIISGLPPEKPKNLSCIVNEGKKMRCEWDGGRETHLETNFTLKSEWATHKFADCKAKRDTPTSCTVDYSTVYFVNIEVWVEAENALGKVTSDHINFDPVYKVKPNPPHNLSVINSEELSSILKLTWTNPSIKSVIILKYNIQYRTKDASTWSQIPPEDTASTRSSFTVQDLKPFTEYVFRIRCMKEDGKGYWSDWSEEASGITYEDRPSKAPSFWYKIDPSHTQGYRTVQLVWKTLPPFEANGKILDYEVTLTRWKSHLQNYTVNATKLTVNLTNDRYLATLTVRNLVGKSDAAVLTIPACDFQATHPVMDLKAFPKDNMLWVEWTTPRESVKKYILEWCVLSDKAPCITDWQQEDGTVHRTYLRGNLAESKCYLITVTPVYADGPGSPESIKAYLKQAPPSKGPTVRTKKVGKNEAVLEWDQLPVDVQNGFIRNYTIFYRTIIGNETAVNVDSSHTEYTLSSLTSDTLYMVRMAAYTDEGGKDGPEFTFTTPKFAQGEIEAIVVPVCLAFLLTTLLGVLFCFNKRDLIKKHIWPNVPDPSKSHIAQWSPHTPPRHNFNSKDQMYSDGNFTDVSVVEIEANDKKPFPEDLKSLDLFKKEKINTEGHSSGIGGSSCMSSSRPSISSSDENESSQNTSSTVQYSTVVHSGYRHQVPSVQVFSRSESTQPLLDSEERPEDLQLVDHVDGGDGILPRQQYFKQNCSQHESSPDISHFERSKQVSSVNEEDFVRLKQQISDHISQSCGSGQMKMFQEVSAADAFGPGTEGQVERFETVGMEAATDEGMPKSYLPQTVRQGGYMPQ
From the text: (§1) In order to assess cell binding by anti-GP130 antibodies of the invention two cell lines were generated. One cell line generated was HEK293 cells stably over-expressing full length (FL) human gp130 (amino acids 1-918 of accession # P40189 with leucine at position 2 changed to valine, a natural variant) along with a luciferase reporter (Stat3-luciferase, Stat3-luc, SA Bioscience, #CLS-6028L). The cells were sorted twice using flow cytometry for high expression of gp130. It is known hereafter as HEK293/Stat3-luc/gp130-2X Sort. IMR-32 cells (human Neuroblastoma, ATCC), were also evaluated for cell binding as these cells express gp130 endogenously and were used for bioassays. The cells used for binding were generated to stably express a luciferase reporter (Stat3-luciferase, Stat3-luc, SA Bioscience, #CLS-6028L), and are referred to hereafter as IMR-32/STAT3-Luc cells.
(§2) For the FACS analysis, 10 nM of the antibodies were used to stain 0.5×10^6 cells/well of each cell type at 4° C. in PBS (without calcium and magnesium) containing 2% FBS for 30 minutes. IMR-32/STAT3-luc cells were incubated with 1 mg/mL mouse IgG for 30 minutes at 4° C. to block Fc receptors prior to adding the antibodies. To test whether the anti-gp130 antibody binding is specific for gp130 on the IMR-32 cells, antibodies were added to IMR-32/Stat3-luc cells with or without being pre-bound to 1000 nM of recombinant protein of the ecto-domain of human gp130 fused to myc-myc-his tag (hgp130.mmh) for 30 minutes at 25° C. […] Cells were fixed using BD CytoFix™ (Becton Dickinson, #554655) and analyzed on an IQue® (Intellicyt®) Flow Cytometer. Unstained and secondary antibody alone controls were also tested for all cell lines. The results were analyzed using ForeCyt® (IntelliCyt®) software to determine the geometric means of fluorescence for viable cells.

[2] = target: T1, human gp130 expressed endogenously on …; assay: FACS, 10 nM mAb, IMR-32/Stat3-luc cells, competitor 1 uM hGP130.mmh
From the text: as §1, §2

[3] = target: T2, full length (FL) human gp130 over-expressed on HEK293/Stat3-luc/gp130-2X Sort cells (human, UniProt P40189 23-918); assay: FACS, 10 nM mAb, 293/Stat3-luc/GP130 2X sort cells
T2 construct: whole, on cells
T2 sequence (looked up): T1 sequence (looked up)
From the text: as §1, §2

- MFI - Normalized to Unstained Control [1]: 10
- MFI - Normalized to Unstained Control [2]: 7
- MFI - Normalized to Unstained Control [3]: 107
B3: MAb16673 (antibody, V domains shown)
VH: EVQLVQSGAEVKKPGESLKISCKGSGYSFTSYWIDWVRQMPGKGLEWMGIIYPDDSDTRYSPSFQGQVTMSVDKSISTAYLQWSSLKASDTAIYYCARHERGIVEAGTDYYYYYGMDVWGQGTTVTVSS
VL: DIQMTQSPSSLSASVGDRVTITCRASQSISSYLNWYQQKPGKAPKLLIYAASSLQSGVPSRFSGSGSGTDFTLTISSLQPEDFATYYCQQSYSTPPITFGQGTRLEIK
notes: Variable domains only

- MFI - Normalized to Unstained Control [1]: 6
- MFI - Normalized to Unstained Control [2]: 5
- MFI - Normalized to Unstained Control [3]: 53
B5: MAb16669 (antibody, V domains shown)
VH: EVQLVESGGGLVQPGGSLRLSCAASGFTFSSYAMNWVRQAPGKGLEWVSAISGSGDSTYYTDSVKGRFTISRDNSKNTLYLQMNTLRAEDTAVYYCAKEEIVMLVGATPGWFDPWGQGTLVTVSS
VL: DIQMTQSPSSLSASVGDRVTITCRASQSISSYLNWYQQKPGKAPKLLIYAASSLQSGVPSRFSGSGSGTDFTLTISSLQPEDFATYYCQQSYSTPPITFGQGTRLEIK
notes: Variable domains only

- MFI - Normalized to Unstained Control [1]: 6
- MFI - Normalized to Unstained Control [2]: 8
- MFI - Normalized to Unstained Control [3]: 80
B10: MAb16682 (antibody, V domains shown)
VH: EVQLVESGGGLVQPGGSLRLSCAASGFTFSTYWMNWVRQAPGKGLEWVANIKEDGSEKYYVDSVKGRFTISRDNAKNSLYLQMNSLRAEDTAVYYCAREGFGVVTYIWGQGTMVTVSS
VL: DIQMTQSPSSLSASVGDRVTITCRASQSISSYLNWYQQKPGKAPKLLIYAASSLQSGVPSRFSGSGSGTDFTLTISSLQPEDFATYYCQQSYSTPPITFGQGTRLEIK
notes: Variable domains only

- MFI - Normalized to Unstained Control [1]: 9
- MFI - Normalized to Unstained Control [2]: 7
- MFI - Normalized to Unstained Control [3]: 75
B11: MAb16683 (antibody, V domains shown)
VH: QVQLVESGGGLVKPGGSLRLSCAASGFTFSDYYMTWIRQTPGKGLDWVSYISSSGTNKYNADSVKGRFTISRDNAKNSLYLQMNSLRAEDTAVYYCVRDPPWGMDVWGQGTTVTVSS
VL: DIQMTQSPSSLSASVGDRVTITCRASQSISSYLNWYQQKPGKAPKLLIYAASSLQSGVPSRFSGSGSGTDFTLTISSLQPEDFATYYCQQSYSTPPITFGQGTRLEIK
notes: Variable domains only

- MFI - Normalized to Unstained Control [1]: 9
- MFI - Normalized to Unstained Control [2]: 8
- MFI - Normalized to Unstained Control [3]: 74
B16: MAb16676 (antibody, V domains shown)
VH: QVQLVQSGAEVMKPGASVKVSCRASGYTFSSYDINWVRQAPGQGLEWMGWISTATGNTNYPQKVQGRVTMTTDTSTNTAYMELRSLRSDDTAVYYCTREGNSKGWLDPWGQGTLVTVSS
VL: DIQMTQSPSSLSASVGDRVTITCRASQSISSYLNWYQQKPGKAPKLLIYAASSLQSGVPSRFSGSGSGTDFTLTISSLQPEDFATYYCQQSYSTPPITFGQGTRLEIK
notes: Variable domains only

The next lines start with the binder.

B1: MAb16636 (antibody, V domains shown)
VH: QLQLQESGPGLVKPSETLSLICTVSGGSISSNNYYWGWIRQPPGKGLEWIGNLYGSGSTYYNPSLKSRVTISVDTSKNQFSLKLSFVTAADTAVYHCARWDTNGGAFDIWGQGTMVTVSS
VL: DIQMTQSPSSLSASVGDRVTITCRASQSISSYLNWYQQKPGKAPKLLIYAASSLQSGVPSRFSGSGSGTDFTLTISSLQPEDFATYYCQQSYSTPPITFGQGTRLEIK
notes: Variable domains only
- MFI - Normalized to Unstained Control [1]: 8
- MFI - Normalized to Unstained Control [2]: 7
- MFI - Normalized to Unstained Control [3]: 92

B2: MAb16614 (antibody, V domains shown)
VH: QVQLVESGGGVVQPGGSLRLSCAASGFTFSTYDIHWVRQAPGKGLEWVAVISFDGSNRNYGDSVKGRFTISRDNSDNTLFLEMNNLRFEDTAVYYCAKEGYGVDFQHWGQGTLVTVSS
VL: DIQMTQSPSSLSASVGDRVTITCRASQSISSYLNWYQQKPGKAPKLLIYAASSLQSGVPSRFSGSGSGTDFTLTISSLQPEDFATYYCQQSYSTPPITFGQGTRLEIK
notes: Variable domains only
- MFI - Normalized to Unstained Control [1]: 7
- MFI - Normalized to Unstained Control [2]: 6
- MFI - Normalized to Unstained Control [3]: 94

B4: MAb16637 (antibody, V domains shown)
VH: QVQLVQSGAEVKKPGASVKVSCKASGYTFTSLGISWVRQAPGQGLEWMGWISAYSGNRDYAQKFQGRVTMTTDTSTSTAYMELRSLRSDDTAVYYCARSLRFDYWGQGTLVTVSS
VL: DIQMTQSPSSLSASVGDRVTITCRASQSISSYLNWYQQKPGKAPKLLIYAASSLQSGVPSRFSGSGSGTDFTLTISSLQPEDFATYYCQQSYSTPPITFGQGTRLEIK
notes: Variable domains only
- MFI - Normalized to Unstained Control [1]: 9
- MFI - Normalized to Unstained Control [2]: 7
- MFI - Normalized to Unstained Control [3]: 121

B6: MAb16659 (antibody, V domains shown)
VH: QVQLVQSGPEVKKPGSSVKVSCKASGGTIDRNEITWVRQAPGQGLEWMGVIIPILGEAHYERKFQGRLTITMDESTSTAYMELSNLRSEDTAVYYCARERAARGYLDYWGQGTLVTVSS
VL: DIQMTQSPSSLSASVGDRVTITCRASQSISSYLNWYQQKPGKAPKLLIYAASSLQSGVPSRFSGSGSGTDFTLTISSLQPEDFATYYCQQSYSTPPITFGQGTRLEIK
notes: Variable domains only
- MFI - Normalized to Unstained Control [1]: 8
- MFI - Normalized to Unstained Control [2]: 8
- MFI - Normalized to Unstained Control [3]: 81

B7: MAb16618 (antibody, V domains shown)
VH: QVQLQESGPGLVKPSETLSLTCTVSGGSISNYYWTWIRQPPGKGLEWIGHISNSGTTNYNPSLKSRVTISVDTSKNQFSLKLTSVTAADTAVYYCARLPLGIAAVDTDYYYYFGMDVWGQGTTVTVSS
VL: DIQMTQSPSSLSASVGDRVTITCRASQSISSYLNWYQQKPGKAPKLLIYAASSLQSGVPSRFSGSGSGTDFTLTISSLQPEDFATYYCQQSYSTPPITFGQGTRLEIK
notes: Variable domains only
- MFI - Normalized to Unstained Control [1]: 7
- MFI - Normalized to Unstained Control [2]: 8
- MFI - Normalized to Unstained Control [3]: 105

B8: MAb16665 (antibody, V domains shown)
VH: QVQLVESGGGVVQPGRSLRLACAASGFTFRSYGMHWVRQAPGKGLEWVAVIWYDGSNKYYTDSVKGRFTISRDNSKNTLYLQMNSLRAEDTAMYYCAIDKWATVTTYLFDYWGQGTLVTVSS
VL: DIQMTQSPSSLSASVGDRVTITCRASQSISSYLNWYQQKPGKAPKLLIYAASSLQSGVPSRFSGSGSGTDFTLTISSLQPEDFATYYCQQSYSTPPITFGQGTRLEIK
notes: Variable domains only
- MFI - Normalized to Unstained Control [1]: 5
- MFI - Normalized to Unstained Control [2]: 6
- MFI - Normalized to Unstained Control [3]: 55

B9: MAb16623 (antibody, V domains shown)
VH: EVQLVESGGGLVQPGGSLRLSCAASGLTFSSYEMNWVRQAPGKGLEWVSHISSAGSTKYYADSVKGRFTISRDNAKNSLFLQMNSLRAEDTAIYYCAGYNYAYYYFGVDVWGQGTTVTVSS
VL: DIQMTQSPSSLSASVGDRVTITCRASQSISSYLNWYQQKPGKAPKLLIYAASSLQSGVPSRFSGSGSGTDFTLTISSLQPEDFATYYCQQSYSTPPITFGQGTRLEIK
notes: Variable domains only
- MFI - Normalized to Unstained Control [1]: 8
- MFI - Normalized to Unstained Control [2]: 7
- MFI - Normalized to Unstained Control [3]: 96

B12: MAb16662 (antibody, V domains shown)
VH: EVQLVESGGGLVQPGGSLRLSCTASGFTFSNYAIFWVRQAPGKGLEYVSGISNNGVTKYYADSVRDRFTISRDNSRNTVSIQMDSLRTEDMAVYYCARENWGSDDGFDIWGQGTMVTVSS
VL: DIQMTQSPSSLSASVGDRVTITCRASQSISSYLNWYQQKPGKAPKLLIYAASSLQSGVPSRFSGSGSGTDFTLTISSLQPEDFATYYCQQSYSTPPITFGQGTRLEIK
notes: Variable domains only
- MFI - Normalized to Unstained Control [1]: 5
- MFI - Normalized to Unstained Control [2]: 6
- MFI - Normalized to Unstained Control [3]: 49

B13: MAb16664 (antibody, V domains shown)
VH: QVQLVQSGTEVKKPGSSVKVSCKASGGTFSTYPINWVRQAPGQGLEWMGGIIPIFGTASYAQKFQGRVAITTDESTSTAYMELNSLRSEDTAVYYCARERPNWGSNDYWGQGTLVTVSS
VL: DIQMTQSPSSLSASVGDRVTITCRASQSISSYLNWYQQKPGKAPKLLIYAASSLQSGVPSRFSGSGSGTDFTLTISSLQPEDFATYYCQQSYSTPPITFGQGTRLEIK
notes: Variable domains only
- MFI - Normalized to Unstained Control [1]: 7
- MFI - Normalized to Unstained Control [2]: 8
- MFI - Normalized to Unstained Control [3]: 45

B14: MAb16656 (antibody, V domains shown)
VH: EVQLVESGGGLVQPGRSLRLSCAASGFTLDDFAMHWVRQAPGKGLEWVSGISWNSGNIGYADSVKGRFTISRDNARNSLYLQMNSLRAEDTALYYCTSGYYLYYAMDVWGQGTTVTVSS
VL: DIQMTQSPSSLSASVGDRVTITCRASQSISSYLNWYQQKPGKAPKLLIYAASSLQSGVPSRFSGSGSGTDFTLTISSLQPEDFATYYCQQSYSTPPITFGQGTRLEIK
notes: Variable domains only
- MFI - Normalized to Unstained Control [1]: 12
- MFI - Normalized to Unstained Control [2]: 7
- MFI - Normalized to Unstained Control [3]: 132

B15: MAb16622 (antibody, V domains shown)
VH: EVQLVESGGGVVRPGGSLRLSCTASGFTFDDYGMSWVRQAPGKGLEWVSGINWNGGRTEYADAVKGRFIISRDNAKNSLYLQMNSLRAEDTALYFCARTELRWDYWGQGTLVTVSS
VL: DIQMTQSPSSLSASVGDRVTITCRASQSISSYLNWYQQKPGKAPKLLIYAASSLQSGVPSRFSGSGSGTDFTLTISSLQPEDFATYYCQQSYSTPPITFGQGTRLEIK
notes: Variable domains only
- MFI - Normalized to Unstained Control [1]: 5
- MFI - Normalized to Unstained Control [2]: 7
- MFI - Normalized to Unstained Control [3]: 91
